Source: publication PMC12915084, “A dsRNA Viral Transcriptional Regulator Evades Innate Immunity by Hijacking Host CoTranscription Factor DHX9”

Tests used:
DHX9 = DHX9 (UniProt Q08211 1-1270); assay: EMSA; shift at 20 nM DHX9; 5 nM R-loop; no ATP or Mg2+ listed in binding buffer; EMSA: 5 nM R-loop, 0.5% NP-40, 150 mM NaCl, 20 mM Tris-Cl pH 8.0, 0.5 mM EDTA, 37 °C 15 min; 6% native PAGE; details: protein: recombinant; tags: Flag; label: 5' Cy5.5 on RNA; three-strand R-loop, DNA duplex arms around an unpaired bubble; RNA nt 1-30 pair with ssDNA-2, 3' RNA overhang 30 nt
[1] = target: T1, σ3 WT (REOV outer capsid protein) (Mammalian orthoreovirus, UniProt P07939 1-365); assay: EMSA; no shift at any σ3 concentration tested; 5 nM R-loop; without DHX9; EMSA: 5 nM R-loop, 0.5% NP-40, 150 mM NaCl, 20 mM Tris-Cl pH 8.0, 0.5 mM EDTA, 37 °C 15 min; 6% native PAGE; details: protein: recombinant; tags: Flag; label: 5' Cy5.5 on RNA; three-strand R-loop, DNA duplex arms around an unpaired bubble; RNA nt 1-30 pair with ssDNA-2, 3' RNA overhang 30 nt
T1 sequence: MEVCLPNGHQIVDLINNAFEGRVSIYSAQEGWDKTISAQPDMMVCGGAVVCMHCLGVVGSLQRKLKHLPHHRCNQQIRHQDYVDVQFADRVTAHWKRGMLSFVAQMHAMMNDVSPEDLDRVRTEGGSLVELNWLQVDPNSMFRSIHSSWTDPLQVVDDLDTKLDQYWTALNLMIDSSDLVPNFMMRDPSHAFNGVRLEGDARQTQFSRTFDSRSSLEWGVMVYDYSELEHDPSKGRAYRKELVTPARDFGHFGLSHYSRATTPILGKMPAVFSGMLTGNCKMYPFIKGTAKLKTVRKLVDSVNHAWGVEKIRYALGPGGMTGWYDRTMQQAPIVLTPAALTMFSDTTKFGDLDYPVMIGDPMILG

DHX9, sequence (Q08211 whole entry): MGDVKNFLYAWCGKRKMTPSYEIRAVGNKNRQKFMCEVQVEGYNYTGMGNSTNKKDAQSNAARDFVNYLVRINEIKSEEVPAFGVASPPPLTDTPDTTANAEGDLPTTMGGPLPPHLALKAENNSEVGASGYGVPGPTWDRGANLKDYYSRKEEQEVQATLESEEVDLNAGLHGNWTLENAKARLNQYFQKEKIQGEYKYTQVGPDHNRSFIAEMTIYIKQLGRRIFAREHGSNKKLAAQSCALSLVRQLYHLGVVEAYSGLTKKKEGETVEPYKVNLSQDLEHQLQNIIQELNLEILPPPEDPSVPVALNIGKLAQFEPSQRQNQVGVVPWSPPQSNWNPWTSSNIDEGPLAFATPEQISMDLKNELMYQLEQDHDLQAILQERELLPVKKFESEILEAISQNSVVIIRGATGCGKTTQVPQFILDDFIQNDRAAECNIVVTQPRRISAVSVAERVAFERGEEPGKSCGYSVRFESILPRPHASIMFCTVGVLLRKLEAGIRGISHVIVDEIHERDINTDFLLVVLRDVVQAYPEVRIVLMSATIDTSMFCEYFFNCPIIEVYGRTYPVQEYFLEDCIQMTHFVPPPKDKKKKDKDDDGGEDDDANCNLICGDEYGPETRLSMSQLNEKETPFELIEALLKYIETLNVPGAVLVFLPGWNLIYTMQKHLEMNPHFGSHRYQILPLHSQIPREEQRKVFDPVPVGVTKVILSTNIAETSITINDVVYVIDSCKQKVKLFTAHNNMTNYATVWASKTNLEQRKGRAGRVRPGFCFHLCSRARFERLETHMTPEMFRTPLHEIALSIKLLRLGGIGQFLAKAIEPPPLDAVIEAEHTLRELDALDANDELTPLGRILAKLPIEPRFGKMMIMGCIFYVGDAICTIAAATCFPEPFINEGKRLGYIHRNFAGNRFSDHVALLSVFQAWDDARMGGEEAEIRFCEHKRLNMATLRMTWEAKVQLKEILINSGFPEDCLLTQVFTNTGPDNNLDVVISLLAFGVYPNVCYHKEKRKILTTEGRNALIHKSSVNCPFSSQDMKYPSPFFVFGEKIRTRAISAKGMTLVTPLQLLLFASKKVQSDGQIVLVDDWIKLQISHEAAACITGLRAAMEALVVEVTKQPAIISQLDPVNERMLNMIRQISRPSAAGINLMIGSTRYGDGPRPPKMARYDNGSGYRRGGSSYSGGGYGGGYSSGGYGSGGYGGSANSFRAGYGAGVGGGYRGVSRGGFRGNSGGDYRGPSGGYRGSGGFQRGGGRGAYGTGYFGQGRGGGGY

B1: R-loop substrate with RNA 3' overhang (mixed)
DNA 1: CATTGCATATTTAAAACATGTTGGATCCCACGTTGCATGCTGATAGCCTACTAGAGCTGTATGAATTCAAATGACCTCTTATCAAGTGAC
DNA 2: GTCACTTGATAAGAGGTCATTTGAATTCATGGCTTAGAGCTTAATTGCTGAATCTGGTGCTGGGATCCAACATGTTTTAAATATGCAATG
RNA: GCACCAGAUUCAGCAAUUAAGCUCUAAGCCGCUGACGGCUCGAUGCUGAUCGUAGCAUCG
DHX9
  binding result: binds
[1]
  binding result: no binding
